# Reference: patent publication US20230272099A1 (Chugai, published 2023)
# Residue numbers refer to the chain shown, from its start.
# B1: A375-SCF027/B167-Lamlib (antibody, human IgG1, lambda)
# heavy: EVQLVESGGGLVKPGGSLRLSCAASGFTFSTFTMNWVRQAPGKGLEWVSSISSKSTYIEYADSFKVRFTISRDNAKNSLYLQMNSLRAEDTAVYYCARYGAKNFLNWVFDYWGQGTLVTVSSASTKGPSVFPLAPSSKSTSGGTAALGCLVKDYFPEPVTVSWNSGALTSGVHTFPAVLQSSGLYSLSSVVTVPSSSLGTQTYICNVNHKPSNTKVDKKVEPKSCDKTHTCPPCPAPEYLGGDSVFLFPPKPKDVLMISRTPEVTCVVIDVSHEDPEVKFNWYVDGVEVHNAKTKPREEQYNSTYRVVSVLPVLHQDWLNGKEYKCKVSNKALPKPIEKTISKAKGQRREPQVYTLPPSREEMTKNQVSLTCLVKGFYPSDIAVEWESNGQPENNYKTTPPVLDSDGSFFLYSKLTVKKSRWQQGNVFSCSVMHEALHNHYTQKSLSLSP
# light: QSALTQPPSASGSPGQTVTISCTGTRYDVGYYEYVSWYQQHPGKAPKLMIYETSKRLSGVPDRFSGSKSGNTASLTVSGLQAEDEADYYCSSYRYEHQVSFGGGTKLTVLGQPKAAPSVTLFPPSSEELQANKATLVCLISDFYPGAVTVAWKADSSPVKAGVETTTPSKQSNNKYAASSYLSLTPEQWKSHRSYSCQVTHEGSTVEKTVAPTECS
# B2: A375-SCF028/B167-Lamlib (antibody, human IgG1, lambda)
# heavy: B1 heavy with G242D, I269V
# light: B1 light
# B3: A375-SCF030/B167-Lamlib (antibody, human IgG1, lambda)
# heavy: EVQLVESGGGLVKPGGSLRLSCAASGFTFSTFTMNWVRQAPGKGLEWVSSISSKSTYIEYADSFKVRFTISRDNAKNSLYLQMNSLRAEDTAVYYCARYGAKNFLNWVFDYWGQGTLVTVSSASTKGPSVFPLAPSSKSTSGGTAALGCLVKDYFPEPVTVSWNSGALTSGVHTFPAVLQSSGLYSLSSVVTVPSSSLGTQTYICNVNHKPSNTKVDKKVEPKSCDKTHTCPPCPAPELWNGPSVFLFPPKPKDTLMISRTPEVTCVVVDVSDEDPEVKFNWYVDGVEVHNAKTKPREELYNSTYRVVSVLTVLHRDWLNGKEYKCKVSNTALPKPIEKTISKAKGQRREPQVYTLPPSREEMTKNQVSLTCLVKGFYPSDIAVEWESNGQPENNYKTTPPVLDSDGSFFLYSKLTVDKSRWQQGNVFSCSVMHEALHNHYTQKSLSLSP
# light: B1 light
# B4: A375-SCF032/B167-Lamlib (antibody, human IgG1, lambda)
# heavy: B1 heavy with Q316R, K418D
# light: B1 light
# B5: A375-SCF033/B167-Lamlib (antibody, human IgG1, lambda)
# heavy: B1 heavy with G242D, I269V, Q316R, K418D
# light: B1 light
# B6: A375-SCF039/B167-Lamlib (antibody, human IgG1, lambda)
# heavy: B3 heavy with R316Q
# light: B1 light
# B7: A375-SCF039a/B167-Lamlib (antibody, human IgG1, lambda)
# heavy: B3 heavy with K219R, R316Q
# light: B1 light
# B8: A375-SCF040/B167-Lamlib (antibody, human IgG1, lambda)
# heavy: B3 heavy with R316Q, R348P, D418K
# light: B1 light
# notes: copies: 2 + 2
# Biological target: human FcRn (human, UniProt P55899 24-290; P61769 21-119)
# Sequence (P55899 24-290 limits assumed, chain 1 of 2): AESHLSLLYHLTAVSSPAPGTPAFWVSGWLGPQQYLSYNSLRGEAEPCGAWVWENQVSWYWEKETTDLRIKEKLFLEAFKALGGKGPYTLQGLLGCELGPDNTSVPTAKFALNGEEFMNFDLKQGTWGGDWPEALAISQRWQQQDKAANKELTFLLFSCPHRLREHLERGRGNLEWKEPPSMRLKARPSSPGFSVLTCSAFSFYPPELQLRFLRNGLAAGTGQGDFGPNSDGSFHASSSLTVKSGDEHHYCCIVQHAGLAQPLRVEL
# Sequence (P61769 21-119 limits assumed, chain 2 of 2): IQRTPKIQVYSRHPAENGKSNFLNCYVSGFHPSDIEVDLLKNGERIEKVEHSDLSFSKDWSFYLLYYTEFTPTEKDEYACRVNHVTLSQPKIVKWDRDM
# Assay: SPR 25C pH 6.0, steady state
# Description: Biacore T200 (GE Healthcare) was used to assess the binding activity to human FcRn. Measurement was performed at 25° C. using 50 mM phosphate, 150 mM NaCl, 0.05 w/v %-P20, pH 6.0 as buffer. Human FcRn proteins used for this determination were prepared by the procedure described in WO2010107110. About 400 RU of antibody was captured using a sensor chip immobilized with CaptureSelect™ Human Fab-lambda Kinetics Biotin Conjugate (Thermo Fisher Scientific) as a molecule for ligand capturing, followed by the binding of human FcRn diluted in measuring buffer. The activity of the respective antibodies to bind FcRn was assessed by calculating KD(mol/L) by the steady-state model using Biacore T200 Evaluation Software 2.0.
row,Binder,Kd [nM]
1,B1,1330
2,B2,1270
3,B3,863
4,B4,966
5,B5,874
6,B6,1090
7,B7,1110
8,B8,1460

# Biological target: T1, human FcgRIa extracellular domain (human, UniProt P12314 16-292)
# T1 construct: extracellular domain; also called hFcgRIa
# T1 sequence (P12314 16-292): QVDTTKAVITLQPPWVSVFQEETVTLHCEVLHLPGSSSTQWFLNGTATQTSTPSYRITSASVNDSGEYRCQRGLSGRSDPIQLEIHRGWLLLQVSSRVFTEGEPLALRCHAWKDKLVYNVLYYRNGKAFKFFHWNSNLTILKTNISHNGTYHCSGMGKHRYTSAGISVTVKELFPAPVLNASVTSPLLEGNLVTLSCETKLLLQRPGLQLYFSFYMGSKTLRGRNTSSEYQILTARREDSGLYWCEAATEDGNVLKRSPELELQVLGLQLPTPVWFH
# Assay: SPR 25C
# Description: (§1) Biacore T200 (GE Healthcare) was used to evaluate the binding activity to the respective human Fcγ receptor (hereafter referred to as FcγR). Measurement was performed at 25° C. using 50 mM phosphate, 150 mM NaCl, 0.05 w/v %-P20, pH 7.4 as buffer. About 1000 RU of antibody was captured using a sensor chip immobilized with CaptureSelect™ Human Fab-lambda Kinetics Biotin Conjugate (Thermo Fisher Scientific) as a molecule for ligand capturing. Human FcγR was diluted to 8 nM for FcγRIa and 1000 nM for other FcγR in the measurement buffer, and it was interacted to the captured antibody. The binding activity of each antibody to FcγR was assessed by calculating the binding amount of FcγR (RU) per unit amount of antibody using Biacore T200 Evaluation Software 2.0.
Binder,binding per 1RU antibody [RU],relative binding (A375-G1T3/B167-Lamlib=1)
B1,0.0044,0.05
B2,0.0027,0.03
B3,0.002,0.02
B4,0.0049,0.06
B5,0.0033,0.04
B6,0.0018,0.02
B7,0.0018,0.02
B8,0.0016,0.02

# Biological target: T2, human FcgRIIa type H extracellular domain (human, UniProt P12318 34-217)
# T2 construct: extracellular domain; also called hFcgRIIaH
# T2 sequence (looked up): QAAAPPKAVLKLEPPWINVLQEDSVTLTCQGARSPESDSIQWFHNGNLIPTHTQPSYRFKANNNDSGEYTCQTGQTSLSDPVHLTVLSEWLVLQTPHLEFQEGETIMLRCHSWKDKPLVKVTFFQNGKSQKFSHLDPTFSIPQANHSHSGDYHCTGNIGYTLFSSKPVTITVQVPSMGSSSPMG
# Assay: SPR 25C
# Description: as §1
Binder,binding per 1RU antibody [RU],relative binding (A375-G1T3/B167-Lamlib=1)
B1,0.0031,0.06
B2,0.0101,0.18
B3,0.0533,0.94
B4,0.003,0.05
B5,0.0103,0.18
B6,0.0535,0.94
B7,0.0542,0.96
B8,0.0454,0.8

# Biological target: T3, human FcgRIIb extracellular domain (human, UniProt P31994 43-217)
# T3 construct: extracellular domain; also called hFcgRIIb
# T3 sequence (looked up): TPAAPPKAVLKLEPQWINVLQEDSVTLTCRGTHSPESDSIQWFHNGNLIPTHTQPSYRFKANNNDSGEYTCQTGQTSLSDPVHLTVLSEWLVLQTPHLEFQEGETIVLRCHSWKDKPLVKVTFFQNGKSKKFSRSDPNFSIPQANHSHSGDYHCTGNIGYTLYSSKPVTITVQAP
# Assay: SPR 25C
# Description: as §1
Binder,binding per 1RU antibody [RU],relative binding (A375-G1T3/B167-Lamlib=1)
B1,0.0766,6.99
B2,0.0995,9.08
B3,0.0532,4.85
B4,0.0782,7.14
B5,0.0979,8.94
B6,0.0531,4.85
B7,0.054,4.93
B8,0.0465,4.24

# Biological target: T4, human FcgRIIIa F158 extracellular domain (human, UniProt P08637 17-208)
# T4 construct: extracellular domain; also called hFcgRIIIaF
# T4 sequence (P08637 17-208): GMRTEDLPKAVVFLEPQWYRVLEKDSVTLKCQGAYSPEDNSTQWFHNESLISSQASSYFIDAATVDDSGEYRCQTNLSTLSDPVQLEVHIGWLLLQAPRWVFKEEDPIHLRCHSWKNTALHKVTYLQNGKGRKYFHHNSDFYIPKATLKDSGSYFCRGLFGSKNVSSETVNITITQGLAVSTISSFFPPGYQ
# Assay: SPR 25C
# Description: as §1
Binder,binding per 1RU antibody [RU],relative binding (A375-G1T3/B167-Lamlib=1)
B1,-0.0005,-0.02
B2,-0.0009,-0.04
B3,0.0017,0.08
B4,-0.0007,-0.03
B5,0,0
B6,0.0008,0.04
B7,0.0012,0.06
B8,0.001,0.05

# Biological target: T5, human FcgRIIa type R extracellular domain (human, UniProt P12318 34-217)
# T5 construct: extracellular domain; also called hFcgRIIaR
# T5 sequence (looked up): T2 sequence (looked up) with H134R
# Assay: SPR 25C
# Description: as §1
Binder,binding per 1RU antibody [RU],relative binding (A375-G1T3/B167-Lamlib=1)
B1,0.0058,0.12
B2,0.0299,0.64
B3,0.0532,1.15
B4,-0.0004,-0.01
B5,0.0255,0.55
B6,0.0542,1.17
B7,0.0554,1.2
B8,0.0446,0.96

# Biological target: T6, human FcgRIIIa V158 extracellular domain (human, UniProt P08637 17-208)
# T6 construct: extracellular domain; also called hFcgRIIIaV
# T6 sequence (P08637 17-208 F176V): as the sequence (P08637 17-208) above, with F160V counted along it
# Assay: SPR 25C
# Description: as §1
Binder,binding per 1RU antibody [RU],relative binding (A375-G1T3/B167-Lamlib=1)
B1,-0.0006,-0.01
B2,-0.001,-0.01
B3,0.002,0.03
B4,-0.0007,-0.01
B5,0.0002,0
B6,0.0013,0.02
B7,0.0013,0.02
B8,0.0013,0.02
